{"source": "patent US10357539B2", "about": "“Use of peptides that block metadherin-SND1 interaction as treatment for cancer” (THE TRUSTEES OF PRINCETON UNIVERSITY, priority 2014, dated 2019)", "molecules": {"B1": {"name": "SN1/2 domains: SND1 N-terminal SN1/2 domains, amino acids 16-339 of SEQ ID NO: 2 (protein, listed as Homo sapiens)", "chain": "VPTVQRGIIKMVLSGCAIIVRGQPRGGPPPERQINLSNIRAGNLARRAAATQPDAKDTPDEPWAFPAREFLRKKLIGKEVCFTIENKTPQGREYGMIYLGKDTNGENIAESLVAEGLATRREGMRANNPEQNRLSECEEQAKAAKKGMWSEGNGSHTIRDLKYTIENPRHFVDSHHQKPVNAIIEHVRDGSVVRALLLPDYYLVTVMLSGIKCPTFRREADGSETPEPFAAEAKFFTESRLLQRDVQIILESCHNQNILGTILHPNGNITELLLKEGFARCVDWSIAVYTRGAEKLRAAERFAKERRLRIWRDYVAPTANLDQK"}, "B2": {"name": "W394D: MTDH single point mutant W394D (protein, UniProt Q86UE4 1-582, looked up, variant W394D)", "Protein LYRIC": "MAARSWQDELAQQAEEGSARLREMLSVGLGFLRTELGLDLGLEPKRYPGWVILVGTGALGLLLLFLLGYGWAAACAGARKKRRSPPRKREEAAAVPAAAPDDLALLKNLRSEEQKKKNRKKLSEKPKPNGRTVEVAEGEAVRTPQSVTAKQPPEIDKKNEKSKKNKKKSKSDAKAVQNSSRHDGKEVDEGAWETKISHREKRQQRKRDKVLTDSGSLDSTIPGIENTITVTTEQLTTASFPVGSKKNKGDSHLNVQVSNFKSGKGDSTLQVSSGLNENLTVNGGGWNEKSVKLSSQISAGEEKWNSVSPASAGKRKTEPSAWSQDTGDANTNGKDWGRSWSDRSIFSGIGSTAEPVSQSTTSDYQWDVSRNQPYIDDEWSGLNGLSSADPNSDDNAPAEEWGNWVDEERASLLKSQEPIPDDQKVSDDDKEKGEGALPTGKSKKKKKKKKKQGEDNSTAQDTEELEKEIREDLPVNTSKTRPKQEKAFSLKTISTSDPAEVLVKNSQPIKTLPPATSTEPSVILSKSDSDKSSSQVPPILQETDKSKSNTKQNSVPPSQTKSETSWESPKQIKKKKKARRET"}, "B3": {"name": "W401D: MTDH single point mutant W401D (protein, UniProt Q86UE4 1-582, looked up, variant W401D)", "Protein LYRIC": "B2 Protein LYRIC with D394W, W401D"}, "B4": {"name": "W401A: MTDH mutant W401A (protein, UniProt Q86UE4 1-582, looked up, variant W401A)", "Protein LYRIC": "B2 Protein LYRIC with D394W, W401A"}, "B5": {"name": "D389R: MTDH single point mutant D389R (protein, listed as Homo sapiens)", "chain": "B2 Protein LYRIC with A78S, T317A, D389R, D394W"}, "B6": {"name": "W394A: MTDH mutant W394A (protein, UniProt Q86UE4 1-582, looked up, variant W394A)", "Protein LYRIC": "B2 Protein LYRIC with D394A"}}, "key": {"MTDH (364-582)": {"target": "T1, MTDH (364-582) (Homo sapiens, UniProt Q86UE4)", "T1 construct": "made in house; host or cells: E. coli DH5α", "T1 sequence (Q86UE4 364-582)": "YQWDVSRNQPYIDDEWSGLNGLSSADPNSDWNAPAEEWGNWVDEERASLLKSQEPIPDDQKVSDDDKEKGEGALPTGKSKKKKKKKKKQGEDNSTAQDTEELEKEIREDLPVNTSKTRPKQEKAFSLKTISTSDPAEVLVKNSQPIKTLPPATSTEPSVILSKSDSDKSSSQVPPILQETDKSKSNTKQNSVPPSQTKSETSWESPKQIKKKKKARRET", "assay": "GST-mediated pull-down of SND1 constructs and mutants by GST-tagged MTDH (364-582)", "type": "binding", "conditions": "SND1 mutants in SND1 (16-339)", "text": "(§1) (FIG. 22A) In vitro pull-down of SND1 (16-339) by GST-tagged MTDH (364-582) harboring WT or mutant sequence. The proteins bound to GS4B were examined on SDS-PAGE and visualized by Coomassie blue staining. (FIG. 22B) In vitro pull-down of WT and mutant SND1 (16-339) by GST-tagged MTDH (364-582). The bound proteins were examined as in (FIG. 22A). For both (FIG. 22A) and (FIG. 22B), experiments were repeated three times; representative results are shown. The normalized percentage of binding was averaged from three experiments; mean±SEM was shown below the data. (FIG. 22C) HEK293T cells were transfected with human HA-SND1, WT Myc-MTDH or Myc-MTDH with indicated single point mutation. Lysates were immunoprecipitated with anti-Myc antibody and immunoblotted with the indicated antibodies. (FIG. 22D) HEK293T cells were transfected with human Myc-MTDH, WT HA-SND1 or mutant HA-SND1 with indicated single point mutations or deletions. Lysates were immunoprecipitated with anti-Myc and immunoblotted with the indicated antibodies.\n(§2) GST-Mediated Pull-Down Assay: ˜20 μg of GST-MTDH (different truncation forms and site mutants) was bound to 10 μl of glutathione resin via GST tag. The resin was washed with 200 μl assay buffer (25 mM Tris, PH8.0, 150 mM NaCl, 3 mM DTT) three times to remove the excess unbound protein. 15 μg of His-SND1 (16-339) was added to the resin in a 100 μl volume suspended in the assay buffer with 2 mg/ml of BSA. The mixture was washed with 200 μl assay buffer twice before examined by SDS-PAGE, and visualized by Coomassie blue staining. The experiments were repeated 3 times and the ratio of SND1 associated with GST-MTDH was analyzed by ImageJ."}, "SND1 [1]": {"target": "T2, SND1 (Homo sapiens, UniProt Q7KZF4)", "T2 construct": "15 μg of His-SND1 (16-339) was added to the resin; made in house; host or cells: E. coli DH5α", "T2 sequence (Q7KZF4 16-339)": "B1 chain", "assay": "GST-mediated pull-down of SND1 by GST-tagged MTDH fragments and mutants", "type": "binding", "conditions": "SND1 (16-339); GST-tagged MTDH (364-582)", "text": "(§3) FIGS. 7A-E represents determination of key regions and residues mediating the MTDH-SND1 interaction. (FIG. 7A) Schematics of MTDH fragments and mutants with indicated SND1-binding capability. + indicates binding and − indicates no binding based on results shown below. Two putative nuclear localization signals are residues 432-451 for NLS2 and residues 561-580 for NLS3. In the enlarged view of the minimal binding region 386-407, 9 residues were targeted for mutagenesis in the current study. […] (FIG. 7B) Pulldown of His6-SND1AC by GST-tagged MTDH fragments with indicated boundaries. The bound proteins were examined by SDS-PAGE and visualized by Coomassie blue staining. (FIG. 7C) Pulldown of His6-SND1ΔC by GST-tagged WT or triple mutant MTDH fragments (364-582). For (FIG. 7B) and (FIG. 7C), 1/10 of the His6-SND1ΔC input was shown, and GST alone was used as a negative control. Representative results of 3 independent experiments are shown. (FIG. 7D, FIG. 7E) Lysates from HEK293T cells expressing the indicated ectopic human SND1, AGO2 or MTDH were immunoprecipitated with anti-Myc and immunoblotted with the indicated antibodies.\nas §1, §2"}, "SND1 [2]": {"target": "T3, SND1 (Homo sapiens, UniProt Q7KZF4)", "T3 construct": "Full-length HA-tagged SND1 was co-expressed with full-length Myc-tagged wild-type (WT) or mutant MTDH in HEK293T cells; expressed in transfected cells; host or cells: HEK293T", "T3 sequence (Q7KZF4 1-910)": "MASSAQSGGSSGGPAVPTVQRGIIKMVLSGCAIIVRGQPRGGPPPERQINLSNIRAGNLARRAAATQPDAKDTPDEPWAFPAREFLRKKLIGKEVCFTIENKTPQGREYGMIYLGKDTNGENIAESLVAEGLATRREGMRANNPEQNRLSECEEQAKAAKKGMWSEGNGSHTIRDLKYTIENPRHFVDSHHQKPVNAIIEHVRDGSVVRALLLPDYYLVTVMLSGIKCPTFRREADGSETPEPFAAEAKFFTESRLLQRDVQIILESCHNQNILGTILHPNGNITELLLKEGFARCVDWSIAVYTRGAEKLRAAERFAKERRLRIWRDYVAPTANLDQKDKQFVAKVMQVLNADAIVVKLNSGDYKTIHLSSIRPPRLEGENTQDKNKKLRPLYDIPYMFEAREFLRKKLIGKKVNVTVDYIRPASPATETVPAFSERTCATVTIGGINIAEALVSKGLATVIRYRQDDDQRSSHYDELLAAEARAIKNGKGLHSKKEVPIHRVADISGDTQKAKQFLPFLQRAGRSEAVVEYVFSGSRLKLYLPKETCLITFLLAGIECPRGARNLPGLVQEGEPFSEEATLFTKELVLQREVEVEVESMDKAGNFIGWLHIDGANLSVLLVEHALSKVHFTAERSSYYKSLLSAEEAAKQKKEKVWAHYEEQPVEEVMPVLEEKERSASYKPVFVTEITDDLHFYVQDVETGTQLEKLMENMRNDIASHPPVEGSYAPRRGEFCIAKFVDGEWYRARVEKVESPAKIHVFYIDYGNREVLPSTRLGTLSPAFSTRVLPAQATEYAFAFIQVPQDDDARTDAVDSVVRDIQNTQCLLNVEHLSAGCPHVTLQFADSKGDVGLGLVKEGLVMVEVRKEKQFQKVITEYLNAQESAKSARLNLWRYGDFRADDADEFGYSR", "assay": "Co-immunoprecipitation of full-length Myc-MTDH (WT or mutant) and HA-SND1 in HEK293T cells", "type": "cell-based", "conditions": "HEK293T cell lysates, immunoprecipitation and immunoblot", "text": "as §3, §1\nImmunoprecipitation and western blot For immunoprecipitation (IP) experiments, cultured cells were washed in cold PBS and lysed in lysis buffer (20 mM Tris pH 7.4, 0.15 M NaCl, 1 mM EDTA, 1 mM EGTA, 1% Tx-100, 0.0025 M Na2P2O7, 1 mM α-glycerolphosphate, 1 mM Na3VO4, and 1 mM NaF) with an EDTA-free protease inhibitor mixture (Roche Applied Science) and PMSF. Cell lysates were then incubated on ice for 10 min, centrifuged, and precleared by incubating with protein A/G beads (Santa Cruz Biotechnology) for 1 h at 4° C. For IP bead preparation, 30 μl of protein A/G beads were incubated with 5 μg of antibodies for 2 h at 4° C. IPs were carried out for overnight at 4° C., and beads were centrifuged, washed and subsequently boiled for 5 min in SDS protein loading buffer to elute bound protein. IP lysates were subjected to western blotting with indicated antibodies.\nImmunoprecipitation and western blot: For in vivo immunoprecipitation (IP) experiments, cultured cells were washed in cold PBS and lysed in lysis buffer (20 mM Tris pH 7.4, 0.15 M NaCl, 1 mM EDTA, 1 mM EGTA, 1% Tx-100, 0.0025 M Na2P2O7, 1 mM β-glycerolphosphate, 1 mM Na3VO4, and 1 mM NaF) with an EDTA-free protease inhibitor mixture (Roche Applied Science) and PMSF. Cell lysates were then incubated on ice for 10 min, centrifuged, and precleared by incubating with protein A/G beads (Santa Cruz Biotechnology) for 1 h at 4° C. For IP bead preparation, 30 μl of protein A/G beads were incubated with 5 μg of antibodies for 2 h at 4° C. IPs were carried out for overnight at 4° C., and beads were centrifuged, washed and subsequently boiled for 5 min in SDS protein loading buffer to elute bound protein. IP lysates were subjected to western blotting with indicated antibodies."}}, "note": "Substitutions are numbered along the chain they refer to. Names and notes keep the numbering of the source. “Also recorded” adds a separate entry of the source."}
{"molecule": "B1", "values": [{"measurement": "MTDH-binding of SND1 domains and mutants, in vitro", "setting": "MTDH (364-582)", "value": "bind stoichiometrically with MTDH"}]}
{"molecule": "B2", "values": [{"measurement": "SND1-binding of MTDH (364-582) point mutants, in vitro", "setting": "SND1 [1]", "value": "abolished or significantly reduced the interaction"}, {"measurement": "interaction of full-length MTDH (WT or mutant) with HA-SND1", "setting": "SND1 [2]", "value": "completely and not"}]}
{"molecule": "B3", "values": [{"measurement": "SND1-binding of MTDH (364-582) point mutants, in vitro", "setting": "SND1 [1]", "value": "abolished or significantly reduced the interaction"}, {"measurement": "interaction of full-length MTDH (WT or mutant) with HA-SND1", "setting": "SND1 [2]", "value": "partially abolished the binding; also recorded: significantly reduced the binding; also recorded: strongly reduced the binding"}]}
{"molecule": "B4", "values": [{"measurement": "SND1-binding of MTDH (364-582) point mutants, in vitro", "setting": "SND1 [1]", "value": "abolished or significantly reduced the interaction"}, {"measurement": "interaction of full-length MTDH (WT or mutant) with HA-SND1", "setting": "SND1 [2]", "value": "not"}]}
{"molecule": "B5", "values": [{"measurement": "SND1-binding of MTDH (364-582) point mutants, in vitro", "setting": "SND1 [1]", "value": "barely had any effect"}, {"measurement": "interaction of full-length MTDH (WT or mutant) with HA-SND1", "setting": "SND1 [2]", "value": "did not affect the interaction"}]}
{"molecule": "B6", "values": [{"measurement": "SND1-binding of MTDH (364-582) point mutants, in vitro", "setting": "SND1 [1]", "value": "abolished or significantly reduced the interaction"}, {"measurement": "interaction of full-length MTDH (WT or mutant) with HA-SND1", "setting": "SND1 [2]", "value": "not"}]}
